Measured values: publication PMC12418378, “Intrinsically disordered region of Clr4/Suv39 regulates its enzymatic activity and ensures heterochromatin spreading” (Nucleic Acids Research, 2025)

B1: GST-Clr4-N3 (domain or fragment, S. pombe, UniProt O60016 1-126, looked up)
chain: MSPKQEEYEVERIVDEKLDRNGAVKLYRIRWLNYSSRSDTWEPPENLSGCSAVLAEWKRRKRRLKGSNSDSDSPHHASNPHPNSRQKHQHQTSKSVPRSQRFSRELNVKKENKKVFSSQTTKRQSR
notes: Clr4, S. pombe, residues 1-126; source: E. coli BL21 (DE3), purified (Glutathione Sepharose 4B, anion exchange SOURCE 15Q)
B2: GST-fused Clr4 N-terminus (GST-Clr4-N, amino acids 1-191) (domain or fragment, S. pombe, UniProt O60016 1-191, looked up)
chain: MSPKQEEYEVERIVDEKLDRNGAVKLYRIRWLNYSSRSDTWEPPENLSGCSAVLAEWKRRKRRLKGSNSDSDSPHHASNPHPNSRQKHQHQTSKSVPRSQRFSRELNVKKENKKVFSSQTTKRQSRKQSTALTTNDTSIILDDSLHTNSKKLGKTRNEVKEESQKRELVSNSIKEATSPKTSSILTKPRNP
notes: Clr4, S. pombe, N-terminus comprising the CD and IDR, amino acids 1-191; cloned into pGEX6P-3; also called wild-type GST-Clr4-N; GST-Clr4-N2 (label worked out); source: E. coli BL21 (DE3), purified (Glutathione Sepharose 4B, anion exchange SOURCE 15Q)

Assays:
Assay in all cases: pull-down; GST-fused Clr4 (0.2 nmol) on Glutathione Magnetic Agarose Beads, 0.2 nmol MBP-fused Clr4 in 200 μl of 10 mM Tris-HCl pH 7.5, 150 mM NaCl, 0.1 mM EDTA, 0.1% Triton X-100, 4°C, 2 h; SDS-PAGE and CBB staining; also at 0 mM NaCl and with pericentromeric RNA added
Details in all cases: both partners purified
[1] = target: T1, MBP-fused catalytic domain of Clr4 (MBP-Clr4-C, amino acids 192-490) (S. pombe, UniProt O60016 192-490)
T1 construct: Clr4, S. pombe, C-terminal catalytic domain, amino acids 192-490; cloned into pMALc2; source: E. coli BL21 (DE3), purified (Amylose Resin, dialysed)
T1 sequence (O60016 192-490): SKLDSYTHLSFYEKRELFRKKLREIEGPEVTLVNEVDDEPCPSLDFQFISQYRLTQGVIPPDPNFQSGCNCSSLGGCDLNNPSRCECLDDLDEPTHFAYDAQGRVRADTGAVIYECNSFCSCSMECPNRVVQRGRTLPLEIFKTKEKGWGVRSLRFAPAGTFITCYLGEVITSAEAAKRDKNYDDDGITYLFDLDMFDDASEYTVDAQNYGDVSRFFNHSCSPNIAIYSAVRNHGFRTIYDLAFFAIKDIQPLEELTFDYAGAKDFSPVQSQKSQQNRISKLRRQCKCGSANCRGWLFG

[2] = target: T2, MBP-Clr4-C 472–475E (S. pombe, UniProt O60016 192-490, 472–475E)
T2 construct: source: E. coli BL21 (DE3), purified (Amylose Resin, dialysed)
T2 sequence (O60016 other isoform, or with tags, fused parts or gaps 472–475E | 472–475E): as the sequence (O60016 192-490) above, with K281E, L282E, R283E, R284E counted along it

[3] = target: T3, MBP-Clr4-C 472–475A (S. pombe, UniProt O60016 192-490, 472–475A)
T3 construct: source: E. coli BL21 (DE3), purified (Amylose Resin, dialysed)
T3 sequence (O60016 other isoform, or with tags, fused parts or gaps 472–475A | 472–475A): as the sequence (O60016 192-490) above, with K281A, L282A, R283A, R284A counted along it

Binder | binding result [1] | binding result [2] | binding result [3]
B1 | binds | – | –
B2 | binds | binds | binds
